How the values were obtained:
dock3_mouse Dock3 [1] = molecular target: dock3_mouse Dock3 (UniProt Q8CIQ7)
dock3_mouse Dock3 [2] = molecular target: dock3_mouse Dock3 (UniProt Q8CIQ7); remark: listed apart in the source

Sequence of Presenilin-2 (Homo sapiens), P49810 N141I (P49810 whole entry N141I): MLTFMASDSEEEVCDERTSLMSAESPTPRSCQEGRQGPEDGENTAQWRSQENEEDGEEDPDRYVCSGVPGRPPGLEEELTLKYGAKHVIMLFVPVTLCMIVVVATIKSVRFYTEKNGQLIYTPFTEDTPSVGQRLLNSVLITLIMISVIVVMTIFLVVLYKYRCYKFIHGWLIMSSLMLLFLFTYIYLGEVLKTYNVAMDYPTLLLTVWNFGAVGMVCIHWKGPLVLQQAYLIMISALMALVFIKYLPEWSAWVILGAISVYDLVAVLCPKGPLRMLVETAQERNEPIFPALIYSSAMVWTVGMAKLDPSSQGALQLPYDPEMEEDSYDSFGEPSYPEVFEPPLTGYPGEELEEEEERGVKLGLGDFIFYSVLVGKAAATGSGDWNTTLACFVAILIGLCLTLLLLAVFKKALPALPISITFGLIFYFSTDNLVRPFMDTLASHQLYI

effect of a mutation on the interaction (dock3_mouse Dock3 [1])	effect of a mutation on the interaction (dock3_mouse Dock3 [2])	Substance
increasing interaction strength		Presenilin-1 (Homo sapiens) (from UniProt P49768) C410Y
increasing interaction strength		Presenilin-1 (Homo sapiens) (from UniProt P49768) M146L
	with no effect	Presenilin-2 (Homo sapiens), P49810 N141I
